# B1: Arf-GAP domain and FG repeat-containing protein 1 (Homo sapiens), P52594 (parent)
# chain: MAASAKRKQEEKHLKMLRDMTGLPHNRKCFDCDQRGPTYVNMTVGSFVCTSCSGSLRGLNPPHRVKSISMTTFTQQEIEFLQKHGNEVCKQIWLGLFDDRSSAIPDFRDPQKVKEFLQEKYEKKRWYVPPEQAKVVASVHASISGSSASSTSSTPEVKPLKSLLGDSAPTLHLNKGTPSQSPVVGRSQGQQQEKKQFDLLSDLGSDIFAAPAPQSTATANFANFAHFNSHAAQNSANADFANFDAFGQSSGSSNFGGFPTASHSPFQPQTTGGSAASVNANFAHFDNFPKSSSADFGTFNTSQSHQTASAVSKVSTNKAGLQTADKYAALANLDNIFSAGQGGDQGSGFGTTGKAPVGSVVSVPSQSSASSDKYAALAELDSVFSSAATSSNAYTSTSNASSNVFGTVPVVASAQTQPASSSVPAPFGATPSTNPFVAAAGPSVASSTNPFQTNARGATAATFGTASMSMPTGFGTPAPYSLPTSFSGSFQQPAFPAQAAFPQQTAFSQQPNGAGFAAFGQTKPVVTPFGQVAAAGVSSNPFMTGAPTGQFPTGSSSTNPFL
# partner: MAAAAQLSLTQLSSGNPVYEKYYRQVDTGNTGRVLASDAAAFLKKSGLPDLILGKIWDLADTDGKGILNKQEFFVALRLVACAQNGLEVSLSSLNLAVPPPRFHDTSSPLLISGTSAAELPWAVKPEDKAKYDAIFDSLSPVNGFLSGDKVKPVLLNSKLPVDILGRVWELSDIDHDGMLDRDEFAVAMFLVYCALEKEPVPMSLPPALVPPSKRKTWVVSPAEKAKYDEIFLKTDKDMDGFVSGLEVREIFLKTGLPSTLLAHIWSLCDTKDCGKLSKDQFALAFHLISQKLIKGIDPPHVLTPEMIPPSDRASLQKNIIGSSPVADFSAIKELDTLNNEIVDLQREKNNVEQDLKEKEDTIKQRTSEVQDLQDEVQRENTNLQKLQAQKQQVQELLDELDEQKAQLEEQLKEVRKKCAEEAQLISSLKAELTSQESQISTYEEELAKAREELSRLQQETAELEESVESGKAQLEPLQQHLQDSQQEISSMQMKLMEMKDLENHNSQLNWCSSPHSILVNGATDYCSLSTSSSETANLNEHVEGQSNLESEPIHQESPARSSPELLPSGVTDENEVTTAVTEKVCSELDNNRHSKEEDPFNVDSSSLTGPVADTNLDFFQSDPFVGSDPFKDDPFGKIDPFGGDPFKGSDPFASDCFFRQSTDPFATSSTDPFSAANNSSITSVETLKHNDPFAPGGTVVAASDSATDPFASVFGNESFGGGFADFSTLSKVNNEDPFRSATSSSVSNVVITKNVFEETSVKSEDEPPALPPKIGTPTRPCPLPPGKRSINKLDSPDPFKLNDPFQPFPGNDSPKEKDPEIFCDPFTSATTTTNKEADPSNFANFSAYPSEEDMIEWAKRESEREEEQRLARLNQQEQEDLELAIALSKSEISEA
# Variants of: B1
# Settings: with eps15_human EPS15, P42566
row,Variant,effect of a mutation on the interaction
1,MAASAKRKQEEKHLKMLRDMTGLPHNRKCFDCDQRGPTYVNMTVGSFVCTSCSGSLRGLNPPHRVKSISMTTFTQQEIEFLQKHGNEVCKQIWLGLFDDRSSAIPDFRDPQKVKEFLQEKYEKKRWYVPPEQAKVVASVHASISGSSASSTSSTPEVKPLKSLLGDSAPTLHLNKGTPSQSPVVGRSQGQQQEKKQFDLLSDLGSDIFAAPAPQSTATANFANFAHFNSHAAQNSANADFANFDAFGQSSGSSNFGGFPTASHSPFQPQTTGGSAASVNANFAHFDNFPKSSSADFGTFNTSQSHQTASAVSKVSTNKAGLQTADKYAALANLDNIFSAGQGGDQGSGFGTTGKAPVGSVVSVPSQSSASSDKYAALAELDSVFSSAATSSNAYTSTSNASSNVFGTVPVVASAQTQPASSSVPAPFGATPSTNPVVAAAGPSVASSTNPVQTNARGATAATFGTASMSMPTGFGTPAPYSLPTSFSGSFQQPAFPAQAAFPQQTAFSQQPNGAGFAAFGQTKPVVTPFGQVAAAGVSSNPVMTGAPTGQFPTGSSSTNPVL [F436V;F451V;F542V;F561V],disrupting interaction

# Reference: IntAct's records for PubMed 10613896
